Here are results for one molecule from PMC5772059.

The test concerns the target N2Bus phosphorylated by PKA catalytic subunit or cGMP-activated PKG. The experiment in a line: pull-down; GST pull-down: purified protein incubated with a GST-fusion protein immobilised on glutathione sepharose beads, 4 °C, 1.5 h; washes in high and low salt buffer; SDS-PAGE and western blot. For orientation: In western blotting, separated proteins are transferred to a membrane and probed.

B1: recombinant human full-length PP5 (enzyme)
chain: MAMAEGERTECAEPPRDEPPADGALKRAEELKTQANDYFKAKDYENAIKFYSQAIELNPSNAIYYGNRSLAYLRTECYGYALGDATRAIELDKKYIKGYYRRAASNMALGKFRAALRDYETVVKVKPHDKDAKMKYQECNKIVKQKAFERAIAGDEHKRSVVDSLDIESMTIEDEYSGPKLEDGKVTISFMKELMQWYKDQKKLHRKCAYQILVQVKEVLSKLSTLVETTLKETEKITVCGDTHGQFYDLLNIFELNGLPSETNPYIFNGDFVDRGSFSVEVILTLFGFKLLYPDHFHLLRGNHETDNMNQIYGFEGEVKAKYTAQMYELFSEVFEWLPLAQCINGKVLIMHGGLFSEDGVTLDDIRKIERNRQPPDSGPMCDLLWSDPQPQNGRSISKRGVSCQFGPDVTKAFLEENNLDYIIRSHEVKAEGYEVAHGGRCVTVFSAPNYCDQMGNKASYIHLQGSDLRPQFHQFTAVPHPNVKPMAYANTLLQLGMM
Consider B1, for which the fold binding against unphosphorylated N2Bus was in the range of 2 to 3 times.
